B1: TOP-2::3xFLAG [C. elegans] / wrmScarlet::TDPT-1 [C. elegans] (parent)
chain 1: MSNSDDEIQEIEAKRQKMSQEDSEVEIEILDEPEQGKLKNSSMSDEQKLHEFAIITATDEAFAQSILQDVDWDLKKALDVFYGSEAFAEARSAAVMGASSSMASSGAAVMTAEDLKGFEVSVMSWNIDGLDGRSLLTRMKAVAHIVKNVNPDILFLQEVVDRDLAPIDKLQSLYKIYYSNKGCQYYTAILVSKMFDVEKHDVIHFQNSGMYRTLQILEGSIGGLKVFLLNTHLESTREHRPQRCAQFGFCMDKVREIIAQNPGALVFFGGDLNLRDEEVSRVPDGVKDAWEAAGSDNKTKFTWDTFKNDNKQGFHGAKMRFDRLYWSGPLDKVKFTLEGRQRIRSCLCFPSDHWAINATFFA
chain 2: MSDSDSEFSIEDSPKKKTAPKKEKASPKKKKDDANESMVMTEEDRNVFTSIDKKGGGSKQMAIEDIYQKKSQLEHILLRPDTYIGSVEHTEKTPMWVYNMEESKLEQRDISYVPGLYKIYDEILVNAADNKQRDPKMNTIKITINKEKNEISVYNNGKGIPVTQHKVEKVYVPELIFGTLLTSSNYNDDEKKVTGGRNGYGAKLCNIFSTKFTLETSSRDYKSAFKQTWIKNMTRDEEPKIVKSTDEDFTKITFSPDLAKFKMKELDDDICHLMARRAYDVAGSSKGVAVFLNGKRIPIKGFEDYVQMYTSQFNNEGEPLKIAYEQVGDRWQVALALSEKGFQQVSFVNSIATTKGGRHVDYVADQMVAKFIDSIKRKLTKTSMNIKPFQIKNHMWVFVNCLIENPTFDSQTKETMTLQQKQFGSTCVLSEKFSKAASSVGITDAVMSWVRFKQMDDLNKKCSKTKTSKLKGIPKLEDANDAGTKNSQQCTLILTEGDSAKTLAVSGLSVVGRDKYGVFPLRGKLLNVREGNMKQIADNAEVNAMIKILGLQYKKKYETEDDFKTLRYGKLMVMADQDQDGSHIKGLVINFIHHFWPSLIQRNFVEEFITPIVKATKGKEEVSFYSLPEYSEWRMNTDNWKSYKIKYYKGLGTSTSKEAKEYFLDMVRHRIRFKYNGADDDNAVDMAFSKKKIEERKDWLSKWMREKKDRKQQGLAEEYLYNKDTRFVTFKDFVNRELVLFSNLDNERSIPCLVDGFKPGQRKVLFACFKRADKREVKVAQLAGAVAEISAYHHGEQSLMGTIVNLAQDYVGSNNINLLLPIGQFGTRLQGGKDSASARYIFTQLSPVTRTLFPAHDDNVLRFLYEENQRIEPEWYCPIIPMVLVNGAQGIGTGWSTNIPNYNPRELVKNIKRLIAGEPQKALAPWYKNFRGKIIQIDPSRFACYGEVAVLDDNTIEITELPIKQWTQDYKEKVLEGLMESSDKKSPVIVDYKEYHTDTTVKFVVKLSPGKLRELERGQDLHQVFKLQAVINTTCMVLFDAAGCLRTYTSPEAITQEFYDSRQEKYVQRKEYLLGVLQAQSKRLTNQARFILAKINNEIVLENKKKAAIVDVLIKMKFDADPVKKWKEEQKLKELRESGEIELDEDDLAAVAVEEDEAISSAAKAVETKLSDYDYLVGMALIKLSEEEKNKLIKESEEKMAEVRVIEKKTWQDLWHEDLDNFVSELDKQEAREKADQDASIKNAAKKLAADAKTGRGPKKNVCTEVLPSKDGQRIEPMLDAATKAKYEKMSQPKKERVKKEPKEPKEPKKVKKEGQDIKKFMSPAAPKTAKKEKSDGFNSDMSEESDVEFDEGIDFDSDDDGVEREDVVSKPKPRTGKGAAKAEVIDLSDDDEVPAKKPAPAKKAAPKKKKSEFSDLSGGDSDEEAEKKPSTSKKPSPKKAAPKTAEPKSKAVTDFFGASKKNGKKAAGSDDEDDESFVVAPREKSGRARKAPPTYDVDSGSDSDQPKKKRGRVVDSDSD

Variants of: B1
Test: co-immunoprecipitation (anti-FLAG magnetic agarose beads) with anti-RFP immunoblot, band quantification
Details: with wrmScarlet::TDPT-1 [C. elegans]; parent: 1; read off a plot

ratio to parent	Variant
1	chain 2 R828C

Same assay, conditions: with TOP-2::3xFLAG [C. elegans]; parent: 1; read off a plot

ratio to parent	Variant
0.42	chain 1 MSNSDDEIQEIEAKRQKMSQEDSEVEIEILDEPEQGKLKNSSMSDEQKLHEFAIITATDEAFAQSILQDVDWDLKKALDVFYGSEAFAEARSAAVMGASSSMASSGAAVMTAEDLKRFEVSVMSWNIDGLDGRSLLTRMKAVAHIVKNVNPDILFLQEVVDRDLAPIDKLQSLYKIYYSNKGCQYYTAILVSKMFDVEKHDVIHFQNSGMYRTLQILEGSIGGLKVFLLNTHLESTREHRPQRCAQFGFCMDKVREIIAQNPGALVFFGGDLNLRDEEVSRVPDGVKDAWEAAGSDNKTKFTWDTFKNDNKQGFHGAKMRFDRLYWSGPLDKVKFTLEGRQRIRSCLCFPSDHWAINATFFA [chain 1 G117R]

— publication PMC11261448
